Test results as given in publication PMC8782923, “A Klotho-derived peptide protects against kidney fibrosis by targeting TGF-β signaling” (Nature Communications, 2022).
Values joined by “and” are separate entries in the source; they are usually repeats but may differ in a detail not shown here. Identical values can stand only once.

System: NRK-49F cells
Assay: α-SMA mRNA induced by TGF-β1 in NRK-49F cells (qRT-PCR)
Assay type: cell-based, rat
Settings: TGF-β1 2 ng/ml, KP1 or sKlotho 10 µg/ml, individual values, n = 4, Fig. 1b
Procedure: Normal rat kidney interstitial fibroblasts (NRK-49F) and human proximal tubular epithelial cells (HKC-8) were cultured at 37 °C. NRK-49F cells were serum-starved for 24 h and were pretreated with KP1 (10 µg/ml, 3 µM) for 1 h prior to incubation with TGF-β1 (#240-B; R&D Systems) at 2 ng/ml. Cells were collected at 45 min or 24 h after TGF-β1 treatment, respectively. Whole-cell lysates were prepared and subjected to Western blot analyses. For some experiments, cells were transiently transfected with expression vector human secreted Klotho (sKlotho) that only contains KL1 domain[48], by using Lipofectamine 2000 reagent (Invitrogen, Grand Island, NY) prior to treatment with TGF-β1.
Total RNA was isolated from NRK-49F cells by using a TRIzol RNA isolation system (Invitrogen, Carlsbad, CA). The cDNA was synthesized using 2 µg of RNA in 20 µl of reaction buffer containing AMV-RT (Promega, Madison, WI), random primers, and oligo primers at 42 °C for 60 min. Quantitative, real-time PCR (qRT-PCR) was performed using a Platinum SYBR Green qPCR Super Mix-UDG kit (Invitrogen). The sequences of the primer pairs: F: […]; R: […]. QPCR data were collected by Step one software v2.2.2.

B1: sKlotho: soluble Klotho; expression vector human secreted Klotho contains only KL1 domain (protein)
chain: EPGDGAQTWARFSRPPAPEAAGLFQGTFPDGFLWAVGSAAYQTEGGWQQHGKGASIWDTFTHHPLAPPGDSRNASLPLGAPSPLQPATGDVASDSYNNVFRDTEALRELGVTHYRFSISWARVLPNGSAGVPNREGLRYYRRLLERLRELGVQPVVTLYHWDLPQRLQDAYGGWANRALADHFRDYAELCFRHFGGQVKYWITIDNPYVVAWHGYATGRLAPGIRGSPRLGYLVAHNLLLAHAKVWHLYNTSFRPTQGGQVSIALSSHWINPRRMTDHSIKECQKSLDFVLGWFAKPVFIDGDYPESMKNNLSSILPDFTESEKKFIKGTADFFALCFGPTLSFQLLDPHMKFRQLESPNLRQLLSWIDLEFNHPQIFIVENGWFVSGTTKRDDAKYMYYLKKFIMETLKAIKLDGVDVIGYTAWSLMDGFEWHRGYSIRRGLFYVDFLSQDKMLLPKSSALFYQKLIEKNGFPPLPENQPLEGTFPCDFAWGVVDNYIQVSQLTKPISSLTKPYH
B1 was tested, and the “α-SMA mRNA expression (relative)” value was 10.7876 and 4.655 and 3.074 and 8.483.
